Among the data in PMC4051775, “Intestinal Cell Barrier Function In Vitro Is Severely Compromised by Keratin 8 and 18 Mutations Identified in Patients with Inflammatory Bowel Disease” (PLoS ONE, 2014) are Kd values, retold here.

Holding throughout (details): both partners purified
Assay [1] concerns the target T1, keratin 8 wild type recombinant protein (human, UniProt P05787 1-483).
T1 construct: keratin 8 (K8), wild type, recombinant protein; also called K8 WT; K8
T1 sequence (looked up): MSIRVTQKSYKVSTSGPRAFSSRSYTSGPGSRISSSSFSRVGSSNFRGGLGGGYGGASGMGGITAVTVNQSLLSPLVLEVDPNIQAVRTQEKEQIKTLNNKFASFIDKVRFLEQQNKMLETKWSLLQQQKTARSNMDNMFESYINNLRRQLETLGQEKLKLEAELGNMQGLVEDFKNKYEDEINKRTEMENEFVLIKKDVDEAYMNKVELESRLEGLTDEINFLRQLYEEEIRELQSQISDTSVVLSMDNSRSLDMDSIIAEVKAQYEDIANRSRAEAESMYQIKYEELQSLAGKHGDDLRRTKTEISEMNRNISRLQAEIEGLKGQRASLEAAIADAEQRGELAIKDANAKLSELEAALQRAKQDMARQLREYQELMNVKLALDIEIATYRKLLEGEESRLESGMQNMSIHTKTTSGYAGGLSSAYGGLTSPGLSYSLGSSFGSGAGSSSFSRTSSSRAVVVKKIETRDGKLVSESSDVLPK
The assay is described as follows: SPR; published SPR data of Owens et al. (ref. 26) re-analysed here with ENZO: Enzyme Kinetics to calculate Kd; K8 wild type or mutant in solution, wild type K18 partner immobilised.

The target in assay [2] is T2, keratin 8 K464N recombinant protein (human, UniProt P05787 1-483, K464N).
T2 construct: keratin 8 (K8) with the IBD patient mutation K464N, recombinant protein; The mutation was found in IBD patients; also called K8 K464N
T2 sequence (looked up): T1 sequence (looked up) with K464N
Described as above.

For assay [3], the target named is T3, keratin 8 G62C recombinant protein (human, UniProt P05787 1-483, G62C).
T3 construct: keratin 8 (K8) with the IBD patient mutation G62C, recombinant protein; The mutation was found in IBD patients; also called K8 G62C
T3 sequence (looked up): T1 sequence (looked up) with G62C
Described as above.

Assay [4] addresses T1, keratin 8 wild type recombinant protein. Briefly: SPR; published SPR data of Owens et al. (ref. 26) re-analysed here with ENZO: Enzyme Kinetics to calculate Kd; monomeric K18 wild type or S230T in solution, wild type K8 immobilised.

Positions count from the first letter of the chain named. In names and notes the source's numbering stands.

B1: keratin 18 wild type recombinant protein (natural protein, human, UniProt P05783 1-430, looked up)
chain: MSFTTRSTFSTNYRSLGSVQAPSYGARPVSSAASVYAGAGGSGSRISVSRSTSFRGGMGSGGLATGIAGGLAGMGGIQNEKETMQSLNDRLASYLDRVRSLETENRRLESKIREHLEKKGPQVRDWSHYFKIIEDLRAQIFANTVDNARIVLQIDNARLAADDFRVKYETELAMRQSVENDIHGLRKVIDDTNITRLQLETEIEALKEELLFMKKNHEEEVKGLQAQIASSGLTVEVDAPKSQDLAKIMADIRAQYDELARKNREELDKYWSQQIEESTTVVTTQSAEVGAAETTLTELRRTVQSLEIDLDSMRNLKASLENSLREVEARYALQMEQLNGILLHLESELAQTRAEGQRQAQEYEALLNIKVKLEAEIATYRRLLEDGEDFNLGDALDSSNSMQTIQKTTTRRIVDGKVVSETNDTKVLRH
notes: keratin 18 (K18), wild type, recombinant protein; also called K18 WT; K18
For B1, the dissociation constant (Kd) in assay [1] was 8.5 nM; in assay [2], 13.4 nM; in assay [3], 26.2 nM; in assay [4], 8.5 nM.

B2: keratin 18 S230T recombinant protein (natural protein, human, UniProt P05783 1-430, looked up)
chain: B1 chain with S230T
notes: keratin 18 (K18) with the variation S230T found in an IBD patient and in controls, recombinant protein; Natural variant, earlier designated a polymorphism; also called K18 S230T
Take B2: the Kd in assay [4] was 161 nM.
